Measured values taken from patent publication US20230279138A1 (CHIA TAI TIANQING PHARMACEUTICAL GROUP, published 2023).

B1: W3278-U2T3.F18R-1.uIgG4.SP (bispecific antibody)
heavy 1: QVQLQQPGAELVKPGASVKMSCKASGYTFTSYNMHWVKQTPGRGLEWIGAIYPGNGDTSYNQKFKGKATLTADKSSSTAYMQLSSLTSEDSAVYYCARSTYYGGDWYFNVWGAGTTVTVSAASTKGPSVFPLAPCSRSTSESTAALGCLVKDYFPEPVTVSWNSGALTSGVHTFPAVLQSSGLYSLSSVVTVPSSSLGTKTYTCNVDHKPSNTKVDKRVGGGGSGGGGSQVQLVQSGAEVKKPGSSVKVSCKASGFAFTDYYIHWVRQAPGQGLEWMGWISPGNVNTKYNENFKGRVTITADKSTSTAYMELSSLRSEDTAVYYCARDGYSLYYFDYWGQGTLVTVLEDLKNVFPPEVAVFEPSEAEISHTQKATLVCLATGFYPDHVELSWWVNGKEVHSGVCTDPQPLKEQPALQDSRYALSSRLRVSATFWQNPRNHFRCQVQFYGLSENDEWTQDRAKPVTQIVSAEAWGRYGPPCPPCPAPEFLGGPSVFLFPPKPKDTLMISRTPEVTCVVVDVSQEDPEVQFNWYVDGVEVHNAKTKPREEQFNSTYRVVSVLTVLHQDWLNGKEYKCKVSNKGLPSSIEKTISKAKGQPREPQVYTLPPCQEEMTKNQVSLWCLVKGFYPSDIAVEWESNGQPENNYKTTPPVLDSDGSFFLYSRLTVDKSRWQEGNVFSCSVMHEALHNHYTQKSLSLSLG
heavy 2: QVQLQQPGAELVKPGASVKMSCKASGYTFTSYNMHWVKQTPGRGLEWIGAIYPGNGDTSYNQKFKGKATLTADKSSSTAYMQLSSLTSEDSAVYYCARSTYYGGDWYFNVWGAGTTVTVSAASTKGPSVFPLAPCSRSTSESTAALGCLVKDYFPEPVTVSWNSGALTSGVHTFPAVLQSSGLYSLSSVVTVPSSSLGTKTYTCNVDHKPSNTKVDKRVESKYGPPCPPCPAPEFLGGPSVFLFPPKPKDTLMISRTPEVTCVVVDVSQEDPEVQFNWYVDGVEVHNAKTKPREEQFNSTYRVVSVLTVLHQDWLNGKEYKCKVSNKGLPSSIEKTISKAKGQPREPQVCTLPPSQEEMTKNQVSLSCAVKGFYPSDIAVEWESNGQPENNYKTTPPVLDSDGSFFLVSRLTVDKSRWQEGNVFSCSVMHEALHNHYTQKSLSLSLG
light 1: QIVLSQSPAILSASPGEKVTMTCRASSSVSYIHWFQQKPGSSPKPWIYATSNLASGVPVRFSGSGSGTSYSLTISRVEAEDAATYYCQQWTSNPPTFGGGTKLEIKRTVAAPSVFIFPPSDEQLKSGTASVVCLLNNFYPREAKVQWKVDNALQSGNSQESVTEQDSKDSTYSLSSTLTLSKADYEKHKVYACEVTHQGLSSPVTKSFNRGEC
light 2: DIVMTQSPDSLAVSLGERATINCKSSQSLLNSRTRKNYLAWYQQKPGQPPKLLIYWASTRQSGVPDRFSGSGSGTDFTLTISSLQAEDVAVYYCTQSHTLRTFGGGTKVEIKPDIQNPDPAVYQLRDSKSSDKSVCLFTDFDSQTQVSQSKDSDVYITDKCVLDMRSMDFKSNSAVAWSQKSDFACANAFQNSIIPEDTFFPSPESS
notes: Human IgG4 S228P, knobs-into-holes; also called WBP3278 lead Ab; W3278 lead Ab
B2: W3278-T3U2.F16-1.uIgG4.SP (bispecific antibody)
heavy 1: QVQLVQSGAEVKKPGSSVKVSCKASGFAFTDYYIHWVRQAPGQGLEWMGWISPGNVNTKYNENFKGRVTITADKSTSTAYMELSSLRSEDTAVYYCARDGYSLYYFDYWGQGTLVTVLEDLKNVFPPEVAVFEPSEAEISHTQKATLVCLATGFYPDHVELSWWVNGKEVHSGVCTDPQPLKEQPALQDSRYALSSRLRVSATFWQNPRNHFRCQVQFYGLSENDEWTQDRAKPVTQIVSAEAWGRYGPPCPPCPAPEFLGGPSVFLFPPKPKDTLMISRTPEVTCVVVDVSQEDPEVQFNWYVDGVEVHNAKTKPREEQFNSTYRVVSVLTVLHQDWLNGKEYKCKVSNKGLPSSIEKTISKAKGQPREPQVYTLPPCQEEMTKNQVSLWCLVKGFYPSDIAVEWESNGQPENNYKTTPPVLDSDGSFFLYSRLTVDKSRWQEGNVFSCSVMHEALHNHYTQKSLSLSLG
heavy 2: QVQLQQPGAELVKPGASVKMSCKASGYTFTSYNMHWVKQTPGRGLEWIGAIYPGNGDTSYNQKFKGKATLTADKSSSTAYMQLSSLTSEDSAVYYCARSTYYGGDWYFNVWGAGTTVTVSAASTKGPSVFPLAPCSRSTSESTAALGCLVKDYFPEPVTVSWNSGALTSGVHTFPAVLQSSGLYSLSSVVTVPSSSLGTKTYTCNVDHKPSNTKVDKRVGGGGSGGGGSQVQLQQPGAELVKPGASVKMSCKASGYTFTSYNMHWVKQTPGRGLEWIGAIYPGNGDTSYNQKFKGKATLTADKSSSTAYMQLSSLTSEDSAVYYCARSTYYGGDWYFNVWGAGTTVTVSAASTKGPSVFPLAPCSRSTSESTAALGCLVKDYFPEPVTVSWNSGALTSGVHTFPAVLQSSGLYSLSSVVTVPSSSLGTKTYTCNVDHKPSNTKVDKRVESKYGPPCPPCPAPEFLGGPSVFLFPPKPKDTLMISRTPEVTCVVVDVSQEDPEVQFNWYVDGVEVHNAKTKPREEQFNSTYRVVSVLTVLHQDWLNGKEYKCKVSNKGLPSSIEKTISKAKGQPREPQVCTLPPSQEEMTKNQVSLSCAVKGFYPSDIAVEWESNGQPENNYKTTPPVLDSDGSFFLVSRLTVDKSRWQEGNVFSCSVMHEALHNHYTQKSLSLSLG
light 1: B1 light 2
light 2: B1 light 1
notes: Human IgG4 S228P, knobs-into-holes; also called W3278 BsAb; WBP3278 BsAb

Experiments:
[1] = target: T1, CD20 on Raji cells (CD20+/CD3- cells) (human, UniProt P11836 1-297); assay: flow cytometry on Raji cells (CD20+/CD3-)
T1 construct: whole, on cells; Raji, Ramos and NAMALWA in the killing assays; also called Ramos; NAMALWA
T1 sequence (looked up): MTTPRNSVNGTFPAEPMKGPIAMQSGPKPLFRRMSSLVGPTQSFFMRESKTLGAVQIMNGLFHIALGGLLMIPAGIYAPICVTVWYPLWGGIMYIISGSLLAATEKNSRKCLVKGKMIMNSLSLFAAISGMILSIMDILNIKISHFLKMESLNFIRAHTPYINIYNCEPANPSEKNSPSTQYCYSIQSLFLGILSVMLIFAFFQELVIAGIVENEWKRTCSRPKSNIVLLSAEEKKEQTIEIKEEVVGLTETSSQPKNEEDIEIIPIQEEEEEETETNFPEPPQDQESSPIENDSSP
Description: (§1) After incubation, the cells were washed twice with cold 1% BSA/1×PBS. […] After being washed twice, the geometric mean fluorescence (MFI) of the stained cells was measured using a FACS Canto II […] (BD Biosciences). Wells containing no antibody or containing only fluorescent secondary antibody were used to establish background fluorescence. The EC50 values for cell binding were determined using GraphPad Prism 5 software (GraphPad Software, La Jolla, Calif.); each value was calculated by four-parameter non-linear regression analysis.

[2] = target: T1, CD20 on Raji cells (CD20+/CD3- cells); assay: cell-based or functional assay
[3] = target: T1, CD20 on Raji cells (CD20+/CD3- cells); assay: FACS on Raji cells after 14 days at 37 C in human serum
Description: as §1
(§2) The antibody was mixed with freshly collected human serum and the proportion of serum in the mixture sample was ensured to be >95%. The mixture sample was aliquoted and incubated at 37° C. for 0-14 days. […] The bindings of each sample to Raji or Jurkat cells was analyzed by FACS.

[4] = target: T1, CD20 on Raji cells (CD20+/CD3- cells); assay: cell-based or functional assay; remark: listed apart in the source
[5] = target: T1, CD20 on Raji cells (CD20+/CD3- cells); assay: cell-based or functional assay; remark: listed apart in the source
[6] = target: T2, CD3 on Jurkat cells (CD3+/CD20- cells) (human, UniProt P07766 23-207; P04234 22-171; P09693 23-182); assay: cell-based or functional assay
T2 sequence (P07766 23-207, chain 1 of 3): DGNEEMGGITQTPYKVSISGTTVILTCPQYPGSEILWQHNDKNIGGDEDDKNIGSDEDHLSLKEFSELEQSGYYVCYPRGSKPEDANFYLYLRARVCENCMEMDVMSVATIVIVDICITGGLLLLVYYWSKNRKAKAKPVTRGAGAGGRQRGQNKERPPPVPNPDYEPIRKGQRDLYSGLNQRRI
T2 sequence (P04234 22-171, chain 2 of 3): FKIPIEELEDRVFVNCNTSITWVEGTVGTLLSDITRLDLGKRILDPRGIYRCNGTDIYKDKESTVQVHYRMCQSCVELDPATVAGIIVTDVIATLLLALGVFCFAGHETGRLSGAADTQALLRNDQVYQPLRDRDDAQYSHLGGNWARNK
T2 sequence (P09693 23-182, chain 3 of 3): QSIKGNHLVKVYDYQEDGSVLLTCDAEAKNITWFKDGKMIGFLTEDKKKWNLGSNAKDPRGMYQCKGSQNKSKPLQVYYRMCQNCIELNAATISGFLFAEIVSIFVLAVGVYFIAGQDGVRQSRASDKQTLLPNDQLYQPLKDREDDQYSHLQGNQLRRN

[7] = target: T1, CD20 on Raji cells (CD20+/CD3- cells); assay: FACS on Raji cells after 0, 1, 4 or 7 days at 37 C in human serum
Description: as §1, §2

[8] = target: T1, CD20 on Raji cells (CD20+/CD3- cells); assay: cell-based or functional assay; remark: listed apart in the source
[9] = target: T2, CD3 on Jurkat cells (CD3+/CD20- cells); assay: flow cytometry on Jurkat 2B8 cells (CD3+/CD20-)
Description: as §1

Binder | EC50 [1] | TOP MFI [1] | EC50 of CD25 expression, CD4+ T cells with Raji cells [2] | EC50 of CD25 expression, CD8+ T cells with Raji cells [2] | EC50 (read off the curve) [3] | EC50 of IL-2 release, CD4+ T cells with Raji cells [4] | EC50 of TNF-α release, CD4+ T cells with Raji cells [4] | EC50 ratio IL-2 release/Raji cell killing [4] | EC50 ratio TNFα release/Raji cell killing [4] | EC50 of CD69 expression, CD4+ T cells with Raji cells [5] | EC50 of CD69 expression, CD8+ T cells with Raji cells [5] | Biological activity (%) (EC50 of reference/EC50 of test sample; Jurkat luciferase reporter with Raji cells), lyophilized formulation, T0 [6] | EC50 (read off the curve) [7] | cytotoxicity EC50, CD8+ T cells against NAMALWA cells (FACS) [8] | cytotoxicity EC50, CD8+ T cells against Raji cells (FACS) [8] | cytotoxicity EC50, CD8+ T cells against Ramos cells (FACS) [8] | EC50 [9] | TOP MFI [9]
B1 | 2.5 nM | 66700 MFI | 0.0006 nM | 0.0008 nM | ~6 nM | 0.0114 nM | 0.0135 nM | 22 | 26 | 0.0002 nM | 0.0004 nM | 114% | ~6 nM | 0.0468 nM | 0.00052 nM | 0.00125 nM | 41.7 nM | 4080 MFI
B2 | > 1000 nM | 55200 MFI |  |  |  |  |  |  |  |  |  |  |  |  |  |  | 58.9 nM | 6750 MFI
